Data: patent publication US20250051444A1 (SUZHOU ZELGEN BIOPHARMACEUTICALS, published 2025)

T1: human LRRC15 (leucine-rich repeat containing protein 15) (human, UniProt Q8TF66 22-581)
T1 construct: whole, on cells; also called huLRRC15
T1 sequence (looked up): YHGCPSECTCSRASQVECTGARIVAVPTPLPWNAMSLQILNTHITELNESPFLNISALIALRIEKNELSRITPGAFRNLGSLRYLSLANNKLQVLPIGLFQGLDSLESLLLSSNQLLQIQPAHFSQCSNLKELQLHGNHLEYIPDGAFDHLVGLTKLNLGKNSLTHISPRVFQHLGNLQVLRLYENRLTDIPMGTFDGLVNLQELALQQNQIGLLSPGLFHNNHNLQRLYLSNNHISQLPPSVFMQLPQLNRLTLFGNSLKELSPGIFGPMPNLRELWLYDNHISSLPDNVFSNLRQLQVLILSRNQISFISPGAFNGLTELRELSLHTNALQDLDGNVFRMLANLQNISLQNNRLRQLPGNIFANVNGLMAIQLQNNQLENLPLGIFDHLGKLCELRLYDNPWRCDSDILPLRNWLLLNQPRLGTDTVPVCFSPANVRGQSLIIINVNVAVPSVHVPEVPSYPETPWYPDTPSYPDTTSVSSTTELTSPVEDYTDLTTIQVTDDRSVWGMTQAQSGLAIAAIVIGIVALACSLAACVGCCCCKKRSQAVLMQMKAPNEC

B1: L15-03 (antibody, V domains shown)
VH: QVQLVQSGAEVKKPGSSVKVSCKASGGTFSSYTISWVRQAPGQGLEWMGGIIPMFGTANYAQKFQGRVTITADESTSTAYMELSSLRSEDTAVYYCARGVALLATDFDYWGQGTLVTVSS
VL: QSALTQPASVSGSPGQSITISCTGTSSDVGGYNYVSWYQQHPGKAPKLMIYEVSNRPSGVSNRFSGSKSGNTASLTISGLQAEDEADYYCQSWTHDNSVVFGGGTKLTVL
notes: From phage library screening; also called anti-LRRC15 antibody L15-03
B2: L15-07 (antibody, V domains shown)
VH: QVQLVQSGAEVKKPGSSVKVSCKASGGTFSTYAISWVRQAPGQGLEWMGGITPMFGTPNYAQKFQGRVTITADESTSTAYMELSSLRSEDTAVYYCARGDWYDYHFDYWGQGTLVTVSS
VL: QSALTQPASVSGSPGQSITISCTGTSSDVGGYNYVSWYQQHPGKAPKLMIYEVSNRPSGVSNRFSGSKSGNTASLTISGLQAEDEADYYCQSYANRDNFVVFGGGTKLTVL
notes: From phage library screening
B3: L15-08 (antibody, V domains shown)
VH: QVQLVESGGGLVKPGGSLRLSCAASGFTFSDYYMSWIRQAPGKGLEWVSDISVSSSYTNYADSVKGRFTISRDNAKNSLYLQMNSLRAEDTAVYYCARLGGYRSFFSTDDGDSLDYWGQGTLVTVSS
VL: not shown
notes: From phage library screening
B4: 315-L06C08 (bispecific antibody)
chain: not shown
heavy: QVQLVESGGGLVKPGGSLRLSCAASGFTFSDYYMSWIRQAPGKGLEWVSDISVSSSYTNYADSVKGRFTISRDNAKNSLYLQMNSLRAEDTAVYYCARLGGYRSFFSTDDGDSLDYWGQGTLVTVSSASTKGPSVFPLAPSSKSTSGGTAALGCLVKDYFPEPVTVSWNSGALTSGVHTFPAVLQSSGLYSLSSVVTVPSSSLGTQTYICNVNHKPSNTKVDKRVEPKSCDKTHTCPPCPAPEFEGGPSVFLFPPKPKDTLMISRTPEVTCVVVDVSHEDPEVKFNWYVDGVEVHNAKTKPREEQYNSTYRVVSVLTVLHQDWLNGKEYKCKVSNKALPASIEKTISKAKGQPREPQVCTLPPSRDELTKNQVSLTCLVEGFYPSDIAVEWESNGQPENNYKTTPPVLDSDGSFFLYSDLTVDKSRWQQGNVFSCSVMHEALHNHYTQESLSLSPGK
light: not shown
notes: heterodimeric IgG1 Fc; also called bispecific antibody of structure c (scFv-scFv-Fc x Fab-Fc)
B5: 153-L06C (bispecific antibody)
chain 1: not shown
chain 2: EPKSCDKTHTCPPCPAPEFEGGPSVFLFPPKPKDTLMISRTPEVTCVVVDVSHEDPEVKFNWYVDGVEVHNAKTKPREEQYNSTYRVVSVLTVLHQDWLNGKEYKCKVSNKALPASIEKTISKAKGQPREPQVCTLPPSRDELTKNQVSLTCLVEGFYPSDIAVEWESNGQPENNYKTTPPVLDSDGSFFLYSDLTVDKSRWQQGNVFSCSVMHEALHNHYTQESLSLSPGK
notes: Targets LRRC15 and CD3; heterodimeric IgG1 Fc; also called bispecific antibody of structure b (scFv-scFv-Fc x Fc)
B6: L15-06 (antibody, V domains shown)
VH: EVQLLESGGGLVQPGGSLRLSCAASGFTFSSYYMSWVRQAPGKGLEWVADISVSGSYTNYADSVKGRFTISRDNSKNTLYLQMNSLRAEDTAVYYCARIGSYRSFFSTDDGDSLDYWGQGTLVTVSS
VL: not shown
notes: From phage library screening; tested as a 'monoclonal antibody molecule'; also called L15-L06

These binders were tested against T1, human LRRC15 (leucine-rich repeat …) (assay: FACS on CHO cells expressing human LRRC15).
Method: Furthermore, the binding ability of the LRRC15 antibodies of the present invention to CHO cells expressing LRRC15 was tested. Therein, CHO cells expressing LRRC15 were prepared by the following method: the full-length sequence gene fragments of human, mouse and monkey LRRC15 were obtained by whole gene synthesis, and then these fragments were inserted into the backbone of the stable expression vector to obtain the expression plasmid vectors. These three plasmids were transfected into CHO cells, and monoclonal cell lines were screened under the pressure of puromycin, which are the flow cytometry cell lines used in this example.
CHO cells expressing LRRC15 were washed with FACS buffer (0.5% BSA in PBS) and resuspended at 2E6 cells/ml with the gradient diluted LRRC15 antibodies. The resuspension was incubated on ice for 30 minutes, then washed twice with FACS buffer and incubated with the second antibody on ice for 30 minutes. After washing the resuspended cells with FACS buffer again, the cells were detected by flow cytometry. Based on the measured mean fluorescence intensity, the half maximal binding concentration (EC50) of each antibody was determined.
B1: binds. B2: binds. B3: binds. B4: binds. B5: binds. B6: binds.
